Measured values from US20150125449A1 (published 2015).

Legend:
[1] = target: T1, Her2 on the surface of Her2-expressing cell lines (human, UniProt P04626 23-1255); assay: flow cytometry, SKBR3 cells
T1 construct: whole, on cells; The cell line of each value is named under assay; also called ErbB2; Her2 receptor

[2] = target: T1, Her2 on the surface of Her2-expressing …; assay: flow cytometry, SKOV3 cells
[3] = target: Recombinant human HER2 (human, UniProt P04626 23-652); assay: SPR, antibody captured on anti-human IgG, recombinant human HER2 as analyte, 1:1 Langmuir; average, n 4
[4] = target: T1, Her2 on the surface of Her2-expressing …; assay: flow cytometry, MDA-MB-231 cells
[5] = target: T1, Her2 on the surface of Her2-expressing …; assay: flow cytometry, SKOV3 cells; remark: listed apart in the source

Binder	Bmax [1]	Kd [1] [nM]	Bmax [2]	Kd [2] [nM]	Kd [3] [nM]	koff [3] [s⁻¹]	kon [3] [M⁻¹ s⁻¹]	Bmax [4]	Kd [4] [nM]	Bmax [5]
OA2-Fab-Her2 (antibody) chain 1: not shown chain 2: not shown chain 3: EPKSSDKTHTCPPCPAPELLGGPSVFLFPPKPKDTLMISRTPEVTCVVVDVSHEDPEVKFNWYVDGVEVHNAKTKPREEQYNSTYRVVSVLTVLHQDWLNGKEYKCKVSNKALPAPIEKTISKAKGQPREPQVYVYPPSRDELTKNQVSLTCLVKGFYPSDIAVEWESNGQPENNYKTTPPVLDSDGSFALVSKLTVDKSRWQQGNVFSCSVMHEALHNHYTQKSLSLSPGK	64800	10.8	7070	4.72	0.435	0.000131	313000	412	9.97	–
OA4-scFv-BID2 (antibody) chain 1: QVQLVQSGAEVKKPGESLKISCKGSGYSFTSYWIAWVRQMPGKGLEYMGLIYPGDSDTKYSPSFQGQVTISVDKSVSTAYLQWSSLKPSDSAVYFCARHDVGYCTDRTCAKWPEWLGVWGQGTLVTVSSGGGGSSGGGSGGGGSQSVLTQPPSVSAAPGQKVTISCSGSSSNIGNNYVSWYQQLPGTAPKLLIYDHTNRPAGVPDRFSGSKSGTSASLAISGFRSEDEADYYCASWDYTLSGWVFGGGTKLTVLGAAEPKSSDKTHTCPPCPAPELLGGPSVFLFPPKPKDTLMISRTPEVTCVVVDVSHEDPEVKFNWYVDGVEVHNAKTKPREEQYNSTYRVVSVLTVLHQDWLNGKEYKCKVSNKALPAPIEKTISKAKGQPREPQVYTYPPSRDELTKNQVSLTCLVKGFYPSDIAVEWESNGQPENNYKTTPPVLDSDGSFALVSKLTVDKSRWQQGNVFSCSVMHEALHNHYTQKSLSLSPGK chain 2: not shown	–	–	–	–	–	–	–	–	–	7950
